Data reported in US20240269310A1 (GENERAL HOSPITAL, published 2024).

Key:
[1] = target: T1, CDH1 (E-cadherin) as expressed by PDAC9 cells (human, UniProt P12830 155-882); assay: flow cytometry of fixed PDAC9 cells after siRNA knockdown
T1 construct: whole, on cells; On fixed cells in flow cytometry; In whole cell lysates in the western blot; PDAC9 is described as patient-derived and is used among the human xenograft models
T1 sequence (looked up): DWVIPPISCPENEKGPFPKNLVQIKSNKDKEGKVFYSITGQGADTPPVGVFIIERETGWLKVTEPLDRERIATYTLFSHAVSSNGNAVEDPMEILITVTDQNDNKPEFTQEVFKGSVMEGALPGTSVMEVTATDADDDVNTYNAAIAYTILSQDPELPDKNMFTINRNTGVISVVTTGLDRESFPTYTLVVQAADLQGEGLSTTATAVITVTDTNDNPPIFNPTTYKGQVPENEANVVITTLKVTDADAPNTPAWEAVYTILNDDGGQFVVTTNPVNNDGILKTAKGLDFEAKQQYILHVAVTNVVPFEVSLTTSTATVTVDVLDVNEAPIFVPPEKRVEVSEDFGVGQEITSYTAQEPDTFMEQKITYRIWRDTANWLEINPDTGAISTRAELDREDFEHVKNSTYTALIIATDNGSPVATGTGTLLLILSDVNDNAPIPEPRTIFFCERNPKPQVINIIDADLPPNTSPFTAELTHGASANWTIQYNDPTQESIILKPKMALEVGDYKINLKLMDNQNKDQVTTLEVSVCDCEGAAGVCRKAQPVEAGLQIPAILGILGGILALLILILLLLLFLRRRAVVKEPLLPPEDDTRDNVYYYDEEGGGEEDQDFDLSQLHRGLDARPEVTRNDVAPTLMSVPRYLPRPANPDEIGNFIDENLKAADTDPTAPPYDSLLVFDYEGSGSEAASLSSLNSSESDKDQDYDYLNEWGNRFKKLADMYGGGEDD
Method: Cell lines were routinely checked for mycoplasma (MycoAlert, Lonza), and were obtained from ATCC. […] PDAC9 were grown as previously described (Porter et al., Proc Natl Acad Sci USA, (2019)). Viability assays were performed at 48 hours after treatment with varying concentration of the 23C6 antibody or PBS control. Viability was determined using Cell Titer Glo reagent (Promega). Proliferation assays were performed by treating MDA-MB-231 cells with a single dose of 23C6 antibody or PBS control and timepoints as indicated, where the relative cell number was determined with the Cell TiterGlo reagent. For migration assays, the MDA-MB-231 cells were harvested with trypsin, and the cells suspended in serum free media. […] The cell suspensions were treated with 23C6 or control, and after 48 hours, the number of cells migrating through the membrane was determined by crystal violet staining and microscopic imaging with automated counting of individual cells using Image J. For siRNA knockdown, ONTARGETplus siRNA smartpools (Horizon Discovery) were obtained and transfected using Lipofectamine RNAiMax reagent (Invitrogen) and the cells harvested for analysis after 5 days. For flow cytometry, in brief the cells were fixed with 4% PFA, blocked with 5% BSA in PBS and incubated with the 23C6 antibody at 1:500 followed by anti-mouse IgG-AlexaFlour 555 and then analyzed on BD Fortessa machine.

[2] = target: T2, recombinant murine CDH1 (R&D Systems 8875-EC-050) (murine, UniProt P09803 157-709); assay: western blot of recombinant purified protein
T2 construct: Bought protein; also called mCDH1; recombinant murine E-cadherin protein
T2 sequence (looked up): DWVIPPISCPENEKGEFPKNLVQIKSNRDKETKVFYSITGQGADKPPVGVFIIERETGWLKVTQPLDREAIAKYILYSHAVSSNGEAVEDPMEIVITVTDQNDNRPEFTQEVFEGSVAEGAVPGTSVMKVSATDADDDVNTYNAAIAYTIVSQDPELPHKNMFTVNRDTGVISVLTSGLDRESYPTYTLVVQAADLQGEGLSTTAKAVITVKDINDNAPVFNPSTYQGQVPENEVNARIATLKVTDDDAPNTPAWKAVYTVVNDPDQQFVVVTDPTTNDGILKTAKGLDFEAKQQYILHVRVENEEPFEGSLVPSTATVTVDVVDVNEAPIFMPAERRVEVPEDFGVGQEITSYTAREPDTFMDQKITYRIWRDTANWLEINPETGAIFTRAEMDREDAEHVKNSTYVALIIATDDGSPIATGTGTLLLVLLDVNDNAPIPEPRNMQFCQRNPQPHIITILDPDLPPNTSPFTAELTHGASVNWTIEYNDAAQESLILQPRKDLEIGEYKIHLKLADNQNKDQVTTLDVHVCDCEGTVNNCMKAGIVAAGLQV
Method: (§1) Western blot analysis was performed on whole cell extracts prepared with RIPA buffer. Proteins were separated on 4-15% polyacrylamide gradient-SDS gels (Bio-Rad), and transferred onto nitrocellulose membrane (Invitrogen). Immunoblots were visualized with Enhanced Chemiluminescence (Perkin-Elmer). Primary antibodies were used against E-cadherin (1:5000; BDBiosciences Clone 36), N-cadherin (1:500; EBiosciences Clone 8C11) and GAPDH (1:2000; Millipore ABS16). 23C6 was also used as a primary antibody for western blot analysis (1:250). Recombinant protein obtained as follows: human CDH1 (R&D Systems 8505-EC-050), murine CDH1 (R&D Systems 8875-EC-050), human CDH2 (R&D Systems 1388NC050) and human CDH11 (Elabscience #PKSH032136).

[3] = target: T3, recombinant human CDH1 (R&D Systems 8505-EC-050) (human, UniProt P12830 155-707); assay: western blot of recombinant purified protein
T3 construct: Bought protein; also called hCDH1; E-cadherin
T3 sequence (looked up): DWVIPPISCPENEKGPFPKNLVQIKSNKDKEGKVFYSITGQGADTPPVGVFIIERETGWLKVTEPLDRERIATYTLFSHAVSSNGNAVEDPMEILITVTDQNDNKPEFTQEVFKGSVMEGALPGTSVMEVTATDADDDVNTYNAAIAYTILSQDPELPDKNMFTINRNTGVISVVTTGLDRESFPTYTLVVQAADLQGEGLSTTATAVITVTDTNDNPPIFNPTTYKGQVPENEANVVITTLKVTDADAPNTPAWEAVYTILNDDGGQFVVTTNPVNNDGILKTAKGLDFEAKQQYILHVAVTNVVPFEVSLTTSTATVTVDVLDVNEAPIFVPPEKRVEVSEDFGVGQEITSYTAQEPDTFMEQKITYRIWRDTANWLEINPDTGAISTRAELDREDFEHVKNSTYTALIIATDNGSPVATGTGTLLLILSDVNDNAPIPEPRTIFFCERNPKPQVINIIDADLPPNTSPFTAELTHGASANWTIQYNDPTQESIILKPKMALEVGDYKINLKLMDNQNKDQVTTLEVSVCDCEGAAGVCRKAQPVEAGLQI
Method: as §1

[4] = target: T4, CDH11 as expressed by human breast cancer cells (MDA-MB-231 and breast cancer CTC lines Brx-142, Brx-330, … (human, UniProt P55287 54-796)); assay: western blot of whole cell extracts of MDA-MB-231 and CTC lines; shRNA knockdown as specificity control
T4 construct: whole, on cells; On cells in immunofluorescence and immunohistochemistry; In whole cell extracts (RIPA, SDS gel) in the western blots; also called Cadherin 11; OB-cadherin
T4 sequence (looked up): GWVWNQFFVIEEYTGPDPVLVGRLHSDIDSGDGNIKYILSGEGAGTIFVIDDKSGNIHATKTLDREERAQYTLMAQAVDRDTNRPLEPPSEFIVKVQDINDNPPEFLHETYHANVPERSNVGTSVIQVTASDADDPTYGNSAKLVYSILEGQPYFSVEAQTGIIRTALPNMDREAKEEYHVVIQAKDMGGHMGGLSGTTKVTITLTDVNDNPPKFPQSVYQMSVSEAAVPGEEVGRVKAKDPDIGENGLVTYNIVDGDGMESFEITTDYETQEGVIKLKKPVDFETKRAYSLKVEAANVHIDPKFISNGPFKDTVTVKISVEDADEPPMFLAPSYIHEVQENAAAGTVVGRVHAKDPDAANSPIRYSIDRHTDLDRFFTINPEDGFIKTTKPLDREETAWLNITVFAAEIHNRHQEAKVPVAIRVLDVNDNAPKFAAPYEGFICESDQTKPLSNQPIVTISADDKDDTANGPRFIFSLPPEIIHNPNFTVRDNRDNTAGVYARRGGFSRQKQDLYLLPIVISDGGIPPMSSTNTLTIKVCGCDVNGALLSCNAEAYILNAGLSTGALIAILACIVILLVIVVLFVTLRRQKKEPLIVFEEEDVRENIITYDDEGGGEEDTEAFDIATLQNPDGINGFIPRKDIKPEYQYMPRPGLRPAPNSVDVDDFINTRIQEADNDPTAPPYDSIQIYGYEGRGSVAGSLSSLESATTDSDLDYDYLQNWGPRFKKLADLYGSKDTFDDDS
Method: FIG. 1 is the RNA expression levels of cell adhesion molecules in the CTC lines Brx-82, Brx-142, Brx-394 AVG, Brx-189, Brx-390, Brx-121, Brx-292, Brx-319, Brx-250, Brx-140, or Brx-401 from breast cancer patients. The cell adhesion molecule CDH11 was expressed at the RNA level in multiple breast CTC cell lines (FIG. 1, black outline).
as §1

binding result [1]: binds
binding result [2]: binds
binding result [3]: binds
binding result [4]: binds
B1: anti-CDH11 monoclonal antibody clone 23C6 (antibody, V domains shown)
VH: EFQLQQSGPELVKPGASVKISCKASGYSFTDYNMNWVKQSNGKSLEWIGAINPNYGTTSYNQKFKGKATLTVDQSSSTAYMQLNSLTSEDSAVYYCTRLYYGSRYFDVWGTGTTVTVSS
VL: QIVVTQSPAIMSASLGERVTMTCTASSSVSSSYLHWYQQKPGSSPKLWIYSTSNLASGVPARFSGSGSGTSYSLTISSMEAEDVATYYCHQYHRSPPTFGGGAKLEIK
notes: also called 23C6 antibody; 23C6 anti-CDH11 antibody
